Experiments:
[1] = target: T1, Human Neutrophil Elastase (human, UniProt P08246); test: abbreviated fractionation of display phage on hNE beads
Experimental: To test if ITI-D1E7-display phage bind hNE beads, pH elution profiles were measured. Aliquots of EpiNE-7, MA-ITI-D1, and MA-ITI-D1E7 display phage were incubated with hNE beads for three hours at room temperature (RT). The beads were washed and phage were eluted as described in U.S. Pat. No. 5,223,409, except that only three pH elutions were performed.

[2] = target: T1, Human Neutrophil Elastase; test: display phage eluted from hNE beads, normalized to MA-EpiNE7 in a concurrent elution
[3] = target: T1, Human Neutrophil Elastase; test: display phage on hNE beads, extended pH fractionation
Text: We characterized the binding properties to hNE-beads of MA-BITI and MA-BITI-E7 display phage using the extended pH fractionation procedure described in U.S. Pat. No. 5,223,409.

[4] = target: T1, Human Neutrophil Elastase; test: pH elution of display phage from hNE beads, extended protocol
Text: (§1) Total pfu applied to the beads are in column two. The fractions of this input pfu recovered in each pH fraction of the abbreviated pH elution protocol (pH 7.0, pH 3.5, and pH 2.0) are in the next three columns. For data obtained using the extended pH elution protocol, the pH 3.5 listing represents the sum of the fractions of input recovered in the pH 6.0, pH 5.5, pH 5.0, pH 4.5, pH 4.0, and pH 3.5 elution samples. The pH 2.0 listing is the sum of the fractions of input obtained from the pH 3.0, pH 2.5, and pH 2.0 elution samples. The total fraction of input pfu obtained throughout the pH elution protocol is in the sixth column. The final column of the table lists the total fraction of input pfu recovered, normalized to the value obtained for MA-BITI-E7-141 phage.

[5] = target: T1, Human Neutrophil Elastase; test: estimated for the free domain from display phage binding to and elution from hNE beads
[6] = target: T1, Human Neutrophil Elastase; test: pH elution of display phage from hNE beads, abbreviated protocol
Text: as §1

[7] = target: T1, Human Neutrophil Elastase; test: pH elution of display phage from hNE beads

B1: MA-ITI-D1 display phage (other)
chain: KEDSCQLGYSAGPCMGMTSRYFYNGTSMACETFQYGGCMGNGNNFVTEKDCLQTCRTVGA
SUM, total fraction of input from all pH elution fractions [1]: 1.4e-05 fraction of input | fraction of input eluted at pH 2.0 [1]: 1e-06 fraction of input | fraction of input eluted at pH 3.5 [1]: 3e-06 fraction of input | fraction of input eluted at pH 7.0 [1]: 1e-05 fraction of input | fraction of input in Wash [1]: 1e-05 fraction of input | Normalized fraction of input (relative to recovered MA-EpiNE7) [2]: 0.0067 ratio

B2: MA-BITI display phage (designed binder)
chain: RPDFCQLGYSAGPCMGMTSRYFYNGTSMACETFQYGGCMGNGNNFVTEKDCLQTCRGA
SUM, fraction of input from all pH elution fractions [3]: 3.9e-05 fraction of input | SUM, total pfu from all pH elution fractions [3]: 800000 pfu | pfu eluted at pH 2.0 [3]: 7700 pfu | pfu eluted at pH 2.5 [3]: 22000 pfu | pfu eluted at pH 3.0 [3]: 22000 pfu | pfu eluted at pH 3.5 [3]: 86000 pfu | pfu eluted at pH 4.0 [3]: 31000 pfu | pfu eluted at pH 4.5 [3]: 44000 pfu | pfu eluted at pH 5.0 [3]: 96000 pfu | pfu eluted at pH 6.0 [3]: 250000 pfu | pfu eluted at pH 7.0 [3]: 240000 pfu | pfu/Input eluted at pH 2.0 [3]: 3.8e-07 fraction of input | pfu/Input eluted at pH 2.5 [3]: 1.1e-06 fraction of input | pfu/Input eluted at pH 3.0 [3]: 1.1e-06 fraction of input | pfu/Input eluted at pH 3.5 [3]: 4.3e-06 fraction of input | pfu/Input eluted at pH 4.0 [3]: 1.6e-06 fraction of input | pfu/Input eluted at pH 4.5 [3]: 2.2e-06 fraction of input | pfu/Input eluted at pH 5.0 [3]: 4.8e-06 fraction of input | pfu/Input eluted at pH 6.0 [3]: 1.2e-05 fraction of input | pfu/Input eluted at pH 7.0 [3]: 1.2e-05 fraction of input | Normalized fraction of input (relative to recovered MA-EpiNE7) [2]: 0.018 ratio

B3: MUT1619 display phage (designed binder)
chain: RPDFCQLGYSAGPCVGMFSRYFYNGTSMACQTFVYGGCMGNGNNFVTEKDCLQTCRGA
Fraction of Input recovered at pH2.0 [4]: 8.4e-05 fraction of input | Fraction of Input recovered at pH3.5 [4]: 0.00099 fraction of input | Fraction of Input recovered at pH7.0 [4]: 8.2e-05 fraction of input | Recovery Relative to BITI-E7-141 [4]: 0.46 ratio | Recovery, Total fraction of input [4]: 0.0012 fraction of input | Estimated KD [5]: < 10 pM

B4: MA-BITI-E7-1222 display phage (designed binder)
chain: RPDFCQLGYSTGPCVAMFPRYFYNGTSMACETFQYGGCMGNGNNFVTEKDCLQTCRGA
Fraction of Input recovered at pH2.0 [4]: 6.4e-05 fraction of input | Fraction of Input recovered at pH3.5 [4]: 0.0004 fraction of input | Fraction of Input recovered at pH7.0 [4]: 7.2e-05 fraction of input | Recovery Relative to BITI-E7-141 [4]: 0.21 ratio | Recovery, Total fraction of input [4]: 0.00054 fraction of input

B5: AMINO2 display phage (designed binder)
chain: KPDSCQLGYSAGPCVAMFPRYFYNGTSMACETFQYGGCMGNGNNFVTEKDCLQTCRGA
Fraction of Input recovered at pH2.0 [6]: 4.5e-05 fraction of input | Fraction of Input recovered at pH3.5 [6]: 0.00021 fraction of input | Fraction of Input recovered at pH7.0 [6]: 5.7e-05 fraction of input | Recovery Relative to BITI-E7-141 [6]: 0.12 ratio | Recovery, Total fraction of input [6]: 0.00031 fraction of input | fold reduction of binding against parental MA-BITI-E7-141 [7]: ≥ 10 fold

B6: AMINO1 display phage (designed binder)
chain: KEDFCQLGYSAGPCVAMFPRYFYNGTSMACETFQYGGCMGNGNNFVTEKDCLQTCRGA
Fraction of Input recovered at pH2.0 [4]: 3.5e-05 fraction of input | Fraction of Input recovered at pH3.5 [4]: 0.00023 fraction of input | Fraction of Input recovered at pH7.0 [4]: 2.4e-05 fraction of input | Recovery Relative to BITI-E7-141 [4]: 0.11 ratio | Recovery, Total fraction of input [4]: 0.00029 fraction of input | fold reduction of binding against parental MA-BITI-E7-141 [7]: ≥ 10 fold
